Source: publication PMC3828302

Experiments:
Test in all cases: EMSA
Settings in all cases: 10 mM Tris-HCl pH 7.4, 50 mM KCl, 1 mM DTT, 100 mg/mL BSA (so in the source), 5 ng/mL poly[dI-dC], 200 uM c-di-GMP, 30 C 20 min; 5% native PAGE with 50 uM c-di-GMP …
[1] = target: T1, MrkH-8xHis (Klebsiella pneumoniae AJ218) (UniProt G3FT00)
T1 sequence: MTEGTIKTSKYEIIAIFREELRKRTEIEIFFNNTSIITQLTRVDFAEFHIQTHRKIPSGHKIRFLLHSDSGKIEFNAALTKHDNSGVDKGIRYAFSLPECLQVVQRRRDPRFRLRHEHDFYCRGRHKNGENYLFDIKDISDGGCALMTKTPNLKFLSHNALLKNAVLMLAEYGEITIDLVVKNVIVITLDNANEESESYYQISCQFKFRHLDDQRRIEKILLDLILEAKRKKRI

[2] = target: T2, MrkH 217AS218-8xHis internal_change (Klebsiella pneumoniae AJ218) (UniProt G3FT00)
T2 sequence: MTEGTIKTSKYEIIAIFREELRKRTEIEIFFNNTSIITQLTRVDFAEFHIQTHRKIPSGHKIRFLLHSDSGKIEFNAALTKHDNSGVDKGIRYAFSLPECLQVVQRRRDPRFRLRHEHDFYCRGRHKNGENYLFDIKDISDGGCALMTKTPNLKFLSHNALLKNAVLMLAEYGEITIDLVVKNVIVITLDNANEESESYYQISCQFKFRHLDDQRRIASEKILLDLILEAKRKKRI

[3] = target: T3, MrkH 202AS203-8xHis internal_change (Klebsiella pneumoniae AJ218) (UniProt G3FT00)
T3 sequence: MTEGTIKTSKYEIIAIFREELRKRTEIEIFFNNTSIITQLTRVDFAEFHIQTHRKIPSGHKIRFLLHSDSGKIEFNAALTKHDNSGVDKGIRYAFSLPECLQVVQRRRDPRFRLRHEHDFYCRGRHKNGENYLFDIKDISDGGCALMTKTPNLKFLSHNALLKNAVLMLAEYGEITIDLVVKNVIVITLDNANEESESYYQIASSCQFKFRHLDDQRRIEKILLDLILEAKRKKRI

[4] = target: T4, MrkH 39AS40-8xHis internal_change (Klebsiella pneumoniae AJ218) (UniProt G3FT00)
T4 sequence: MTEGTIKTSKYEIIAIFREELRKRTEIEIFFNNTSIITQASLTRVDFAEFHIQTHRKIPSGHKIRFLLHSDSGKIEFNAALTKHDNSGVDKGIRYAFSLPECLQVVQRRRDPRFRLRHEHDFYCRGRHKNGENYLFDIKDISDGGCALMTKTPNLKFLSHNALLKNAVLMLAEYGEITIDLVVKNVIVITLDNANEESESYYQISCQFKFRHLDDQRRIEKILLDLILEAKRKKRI

[5] = target: T5, MrkH 15AS16-8xHis internal_change (Klebsiella pneumoniae AJ218) (UniProt G3FT00)
T5 sequence: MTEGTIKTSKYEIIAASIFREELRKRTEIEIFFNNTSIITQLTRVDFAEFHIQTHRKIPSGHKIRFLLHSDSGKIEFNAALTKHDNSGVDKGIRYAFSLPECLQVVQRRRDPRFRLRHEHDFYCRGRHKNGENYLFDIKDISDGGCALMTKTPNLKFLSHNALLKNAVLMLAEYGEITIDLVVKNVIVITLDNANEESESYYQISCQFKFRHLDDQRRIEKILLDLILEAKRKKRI

Sequence | binding [1] | binding [2] | binding [3] | binding [4] | binding [5]
GCTGTTGCGGTCACTTTCTCTCGCTCTGGCGTTAGGCTTGCTGCGCTGTAAACAACCACCCTCGCGTTTTCATCTATCAATGACTGTTGCAGCATAGTCGATGGTTATCTGTTATATAACTTAATGAAACGTGAACAAATGTATATTTGTCGGCGAATAAATAGCATTCTTTGACGCCGATAGCACCAGCGAACTTATATTTTTAGGTTCGTTACCTGACGCCTTAAATATTGCGGCTCCCGGTCAGTCGAAGATTCTATTAGCAGTGGC (double strand) [mrkA fragment, UP mutation] | binds |  |  |  | 
GCTGTTGCGGTCACTTTCTCTCGCTCTGGCGTTAGGCTTGCTGCGCTGTAAACAACCACCCTCGCGTTTTCATCTCCCAATGACTGTTTATTAATAGTCGATGGTTATCTGTTATATAACTTAATGAAACGTGAACAAATGTATATTTGTCGGCGAATAAATAGCATTCTTTGACGCCGATAGCACCAGCGAACTTATATTTTTAGGTTCGTTACCTGACGCCTTAAATATTGCGGCTCCCGGTCAGTCGAAGATTCTATTAGCAGTGGC (double strand) [mrkA fragment, MrkH box mut-5] | binds more weakly |  |  |  | 
GCTGTTGCGGTCACTTTCTCTCGCTCTGGCGTTAGGCTTGCTGCGCTGTAAACAACCACCCTCGCGTTTTCATCTAAGAATGACTGTTTATTAATAGTCGATGGTTATCTGTTATATAACTTAATGAAACGTGAACAAATGTATATTTGTCGGCGAATAAATAGCATTCTTTGACGCCGATAGCACCAGCGAACTTATATTTTTAGGTTCGTTACCTGACGCCTTAAATATTGCGGCTCCCGGTCAGTCGAAGATTCTATTAGCAGTGGC (double strand) [mrkA fragment, MrkH box mut-6] | binds more weakly |  |  |  | 
GCTGTTGCGGTCACTTTCTCTCGCTCTGGCGTTAGGCTTGCTGCGCTGTAAACAACCACCCTCGCGTTTTCATCTATCAATGACTGTTTATTAATAGTCGATGGTTATCTGTTATATAACTTAATGAAACGTGAACAAATGTATATTTGTCGGCGAATAAATAGCATTCTTTGACGCCGATAGCACCAGCGAACTTATATTTTTAGGTTCGTTACCTGACGCCTTAAATATTGCGGCTCCCGGTCAGTCGAAGATTCTATTAGCAGTGGC (double strand) [mrkA promoter fragment, wild type] | binds | no binding | no binding | binds | binds
